Experimental data reported in paper PMC11396517, “Differences in the Renal Accumulation of Radiogallium-Labeled (Glu)14 Peptides Containing Different Optical Isomers of Glutamic Acid” (Molecules, 2024).
Read-outs that look alike come from different tables or passages of the source.

What was measured:
[1] = hydroxyapatite beads; Figure 2; cited from earlier work
Protocol: To determine the affinity of the compounds for hydroxyapatite, the hydroxyapatite-binding assay was performed. The hydroxyapatite-binding rates of [^67Ga]Ga-HBED-CC-(L-Glu)14, [^67Ga]Ga-HBED-CC-(D-Glu)14, [^67Ga]Ga-HBED-CC-(DL-Glu)14, and [^67Ga]Ga-HBED-CC-(D-Glu-L-Glu)7 are illustrated in Figure 2. The binding profiles of each tracer were similar.

in vivo = assay: in vivo; set-up: species or system ddY mice; settings: male, ddY, mouse, iv, 37 kBq/100 uL, total radioactivity
Protocol: Biodistribution experiments were performed after an intravenous administration of each tracer solution diluted in saline (37 kBq/100 μL) to 6-week-old male ddY mice (weight, 27–32 g, Japan SLC, Inc., Hamamatsu, Japan). Four mice were sacrificed at each time point for each compound at 10, 60, and 180 min post-injection. The tissues of interest were dissected and weighed. Complete left femurs were isolated as representative bone samples, radioactivity counts were determined using an auto well gamma counter (ARC-7010, ALOKA Co., Ltd.), and counts were corrected for the background radiation and physical decay that occurred during counting.

[2] = Hydroxyapatite-binding assay; settings: hydroxyapatite beads 1, 2.5, 10, 25 mg/mL in Tris/HCl-buffered saline 50 mM pH 7.4, ligand 19.5 µM, 1 h, room temperature, gamma counter, four samples; Figure 2
Protocol: Hydroxyapatite-binding assays were performed according to procedures described previously. Briefly, hydroxyapatite beads (Bio-Gel; Bio-Rad, Hercules, CA, USA) were suspended in Tris/HCl-buffered saline (50 mM, pH 7.4) at 1 mg/mL, 2.5 mg/mL, 10 mg/mL, and 25 mg/mL. For the solutions of [^67Ga]Ga-HBED-CC-(D-Glu)14, [^67Ga]Ga-HBED-CC-(DL-Glu)14, and [^67Ga]Ga-HBED-CC-(D-Glu-L-Glu)7, the ligand concentrations were adjusted to 19.5 µM by adding the corresponding HBED-CC conjugated Glu peptides. A solution of each [^67Ga]Ga-HBED-CC-(D-Glu)14, [^67Ga]Ga-HBED-CC-(DL-Glu)14, and [^67Ga]Ga-HBED-CC-(D-Glu-L-Glu)7 (200 µL each) was added to 200 μL of the hydroxyapatite suspension, and the samples were gently shaken for 1 h at room temperature. After centrifugation at 10,000× g for 5 min, the radioactivity of the supernatants was measured using an auto well gamma counter (ARC-7010B, ALOKA Co., Ltd., Tokyo, Japan). […] The ratios of binding were determined as follows:Hydroxyapatite binding (%) = (1 − [sample supernatant radioactivity]/[control supernatant radioactivity]) × 100

Hydroxyapatite binding profile (in words) [2]	Molecule	Hydroxyapatite binding profile (in words) [1]	tissue uptake dose at 10 min (in vivo) [%ID]	tissue uptake dose at 1 h (in vivo) [%ID]	tissue uptake dose at 3 h (in vivo) [%ID]
–	[^67Ga]Ga-N,N′-bis-[2-hydroxy-5-(carboxyethyl)benzyl]ethylenediamine-N,N′-diacetic acid-conjugated (L-Glu)14 [[^67Ga]Ga-HBED-CC-(L-Glu)14]	similar	–	–	–
similar	O=C(O)CCc1ccc(O)c(CN(CCN(CC(=O)O)Cc2cc(CCC(=O)N[C@H](CCC(=O)O)C(=O)N[C@H](CCC(=O)O)C(=O)N[C@H](CCC(=O)O)C(=O)N[C@H](CCC(=O)O)C(=O)N[C@H](CCC(=O)O)C(=O)N[C@H](CCC(=O)O)C(=O)N[C@H](CCC(=O)O)C(=O)N[C@H](CCC(=O)O)C(=O)N[C@H](CCC(=O)O)C(=O)N[C@H](CCC(=O)O)C(=O)N[C@H](CCC(=O)O)C(=O)N[C@H](CCC(=O)O)C(=O)N[C@H](CCC(=O)O)C(=O)N[C@H](CCC(=O)O)C(=O)O)ccc2O)CC(=O)O)c1 [[67Ga]Ga-HBED-CC-(D-Glu)14, metal not drawn]	–	0.57	0.51	0.76
similar	O=C(O)CCc1ccc(O)c(CN(CCN(CC(=O)O)Cc2cc(CCC(=O)N[C@H](CCC(=O)O)C(=O)N[C@@H](CCC(=O)O)C(=O)N[C@H](CCC(=O)O)C(=O)N[C@@H](CCC(=O)O)C(=O)N[C@H](CCC(=O)O)C(=O)N[C@@H](CCC(=O)O)C(=O)N[C@H](CCC(=O)O)C(=O)N[C@@H](CCC(=O)O)C(=O)N[C@H](CCC(=O)O)C(=O)N[C@@H](CCC(=O)O)C(=O)N[C@H](CCC(=O)O)C(=O)N[C@@H](CCC(=O)O)C(=O)N[C@H](CCC(=O)O)C(=O)N[C@@H](CCC(=O)O)C(=O)O)ccc2O)CC(=O)O)c1 [[67Ga]Ga-HBED-CC-(D-Glu-L-Glu)7, metal not drawn]	–	0.32	0.84	0.48
